Test [1] deals with Cathepsin G from human leukocytes (human) (UniProt P08311).
Test [2] concerns the target α-chymotrypsin from bovine pancreas (bovine).
Test [3] has as its target elastase from porcine pancreas (porcine) (UniProt P00772).

Where only a bound is given, the exact number is not on record here.

Data on 1 substance can be found in publication PMC11417211.

Chain of UniProt P08311 (P08311 21-244): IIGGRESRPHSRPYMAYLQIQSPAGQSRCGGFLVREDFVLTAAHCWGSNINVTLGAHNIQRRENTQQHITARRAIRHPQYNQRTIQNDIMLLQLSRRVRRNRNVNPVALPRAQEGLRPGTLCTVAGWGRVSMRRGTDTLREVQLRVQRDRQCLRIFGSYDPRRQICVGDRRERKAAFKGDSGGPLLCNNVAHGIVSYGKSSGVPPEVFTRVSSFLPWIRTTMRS
Chain of UniProt P00772 (P00772 27-266): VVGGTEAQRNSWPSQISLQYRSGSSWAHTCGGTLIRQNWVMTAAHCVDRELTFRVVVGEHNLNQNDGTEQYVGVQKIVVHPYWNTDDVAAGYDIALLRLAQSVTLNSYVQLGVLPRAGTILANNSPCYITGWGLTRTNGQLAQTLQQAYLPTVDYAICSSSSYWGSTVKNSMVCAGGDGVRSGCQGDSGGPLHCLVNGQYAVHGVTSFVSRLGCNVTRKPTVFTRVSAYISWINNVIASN

The substance “E. coli expressed Hyalomma anatolicum serpin-1 (eHAMpin-1) (natural protein)” registered a decrease of the proteolytic activity of the protease (110 nM) after preincubation with 1 μM eHAMpin-1 for 30 min at 37 °C; chromogenic substrate in test [1] above 90%. This substance yielded a decrease of the proteolytic activity of the protease (96 nM) after preincubation with 1 μM eHAMpin-1 for 30 min at 37 °C; chromogenic substrate in test [2] above 90%. This substance showed a decrease of the proteolytic activity of the protease (100 nM) after preincubation with 1 μM eHAMpin-1 for 30 min at 37 °C; chromogenic substrate in test [3] above 45%.
